From publication doi:10.1101/2020.03.10.985069 (2020)

Key:
[1] = target: R5A11/IL-10Rα complex (human (by the printed UniProt entry …, UniProt P22301 19-178; Q13651 22-235); assay: SPR; pre-bound to IL-10Rα
[2] = target: B11/IL-10Rα complex (human (by the printed UniProt entry …, UniProt P22301 19-178; Q13651 22-235); assay: SPR; pre-bound to IL-10Rα
[3] = target: A11/IL-10Rα complex (human (by the printed UniProt entry …, UniProt P22301 19-178; Q13651 22-235); assay: SPR; pre-bound to IL-10Rα
[4] = target: high affinity IL-10 monomer R5A11M, recombinant (human (by the printed UniProt entry …, UniProt P22301 19-178)); assay: SPR
[5] = target: IL-10 variant B11, recombinant monomer (human (by the printed UniProt entry …, UniProt P22301 19-178)); assay: SPR
[6] = target: IL-10 variant A11, recombinant monomer (human (by the printed UniProt entry …, UniProt P22301 19-178)); assay: SPR

Kd [1]: 100 nM | Kd [2]: 65 nM | Kd [3]: 23 nM | Kd [4]: 8900 nM | Kd [5]: 9400 nM | Kd [6]: 2400 nM
B1: IL-10Rβ ectodomain (amino acids 20-220), biotinylated (receptor)
chain: MVPPPENVRMNSVNFKNILQWESPAFAKGNLTFTAQYLSYRIFQDKCMNTTLTECDFSSLSKYGDHTLRVRAEFADEHSDWVNITFCPVDDTIIGPPGMQVEVLADSLHMRFLAPKIENEYETWTMKNVYNSWTYNVQYWKNGTDEKFQITPQYDFEVLRNLEPWTTYCVQVRGFLPDRNKAGEWSEPVCEQTTHDETVPS
modifications: biotin on the biotin acceptor peptide (BirA ligase)
